{"source": "the DeepSol protein solubility set"}
{"experiment": "soluble on expression in E. coli; label from the status in PepcDB or PDB records"}
{"sequence": "MGHKLAFNFNLEINGSDTHSTVDVYLDDSQIITFDGKDIRPTIPFMIGDEIFLPFYKNVFSEFFSLFRRVPTSTPYEDLTYFYECDYTDNKSTFDQFYLYNGEEYTVKTQEATNKNMWLTTSEFRLKKWFDGEDCIMHLRSLVRKMEDSKRNTG", "soluble on expression in E. coli": "not soluble"}
{"sequence": "MSLAIGRILIIDDENINAETMMDTLEDVNYHVVLAANANQAKTIVEDQIFDLVMMDVWMPAQDGMSLLEEWTQSGFSTPIVMMSGHAEHQDVVKAIKLGAVDFLEKPLHDILPLVRKILSEQVLEKSEHTINGIEFNAPLKEARNIFEVQYFNHHLQENKHNIAKVAILAGLERTTLYRKLKDLGIDKEGHHHHHH", "soluble on expression in E. coli": "soluble"}
{"sequence": "MGSDKIHHHHHHMPAKIIDKIIEEIDKLPSPNVVVQRIIAVCSKPDASSTEVANTLMMDASLSARVLKLANSAYYGVPRKITTLSEAVMILGFKTVRNLALSVFTYDMVFKNSSSGIDREKLWEHFIASAIASETVAETMGYPLKEEIFIAGLLHDLGKVVYDLLFSDILETEAKIAQKTKKNLIDIEEELGIPPHSEVGAKLLRKWNFPDLLVLSAEFHHNVEGNPNELFVNQVSMVHIGDVIANLMMKGASLSWGDPKLSPFALNVLKVKPKTFLRILDKSKEKYNKAQEFLQID", "soluble on expression in E. coli": "not soluble"}
{"sequence": "TTVNETTPIAPAKVLPDAQTVTSVRHWTDTLFSFRVTRPQTLRFRSGEFVMIGLLDDNGKPIMRAYSIASPAWDEELEFYSIKVPDGPLTSRLQHIKVGEQIILRPKPVGTLVIDALLPGKRLWFLATGTGIAPFASLMREPEAYEKFDEVIMMHACRTVAELEYGRQLVEALQEDPLIGELVEGKLKYYPTTTREEFHHMGRITDNLASGKVFEDLGIAPMNPETDRAMVCGSLAFNVDVMKVLESYGLREGANSEPREFVVEKAFVGEGI", "soluble on expression in E. coli": "soluble"}
{"sequence": "MGNIGSPPKFDEYPNGNEEPRRVLRLNVYFDNPVQNKDGAYDDRGGFWAPVDWWHRDAERWATLFAKGMRVAVRGHLERDDWTDGDGEPHTTYKVDARSVGILPYRLDAVHLSPLEHHHHHH", "soluble on expression in E. coli": "not soluble"}
{"sequence": "MASKITQPDKYSGFLNNYSDLKETTSATGKPVLRWVDPSFDQSKYDSIVWNPITYYPVPKPSTQVGQKVLDKILNYTNTEMKEAIAQRKPLVTTAGPRSLIFRGAITGVDTSKEGLQFYEVVPVALVVAGTQMATGHRTMDTRLYFEGELIDAATNKPVIKVVRQGEGKDLNNESTPMAFENIKQVIDDMATDATMFDVNKKLEHHHHHH", "soluble on expression in E. coli": "soluble"}
{"sequence": "MGSDKIHHHHHHMNNNIPLRALQIFEACARLESCSLAANELCITQSAVSQQIKQLEDYFLEKLFYRQGGKINLTEAGIELRERLAPVFYDLNSVCSSLVQNMAGEVRVHSYTSLAARWLVPKMEQLRQMYPELNINVGMFQNDIEMSDMIADIFIVTRECQDGYTIIPLVTEKLVAFCSPDYLAQSQGISLATLDQHCLLYSKHKDYGVDWDTWFRNNDIAISPNQKKIFFNHNMLAVQAAIYGQGIVLGLEQTLKVELDSGNLVKLDLPTCLSGLTYYIAYKTSKKRDARIMRIVDWIIDNYPGDHPGDRTLAR", "soluble on expression in E. coli": "not soluble"}
{"sequence": "SHEELNDQLRVRREKLKKIEELGVDPFGKRFERTHKAEELFELYGDLSKEELEEQQIEVAVAGRIMTKRGMGKAGFAHIQDVTGQIQIYVRQDDVGEQQYELFKISDLGDIVGVRGTMFKTKVGELSIKVSSYEFLTKALRPLPEKYHGLKDIEQRYRQRYLDLIMNPESKKTFITRSLIIQSMRRYLDSHGYLEVETPMMHAVAGGAAARPFITHHNALDMTLYMRIAIELHLKRLIVGGLEKVYEIGRVFRNEGISTRHNPEFTMLELYEAYADFRDIMKLTENLIAHIATEVLGTTKIQYGEHLVDLTPEWRRLHMVDAIKEYVGVDFWRQMSDEEARELAKEHGVEVAPHMTFGHIVNEFFEQKVEDKLIQPTFIYGHPVEISPLAKKNPDDPRFTDRFELFIVGREHANAFTELNDPIDQRQRFEEQLKEREQGNDEAHEMDEDFLEALEYGMPPTGGLGIGVDRLVMLLTNSPSIRDVLLFPQMRHK", "soluble on expression in E. coli": "soluble"}
